Measurements published in publication PMC6277709, “Lipid-Modified Azurin of Neisseria gonorrhoeae Is Not Surface Exposed and Does Not Interact With the Nitrite Reductase AniA” (Frontiers in Microbiology, 2018).

Target: the molecule itself
Assay: cross-linking; in vivo: intact living N. gonorrhoeae (WT or Δlaz, grown under standard aerobic conditions) in PBS with 0, 0.1, 0.25 or 0.4 mM DSP, 37°C, 5% CO2, 30 min; quenched with 50 mM Tris-HCl pH 8.0; SDS-PAGE without reducing agent at 4°C; immunoblot with anti-BamA, anti-AniA or anti-Laz antiserum

B1: Nitrite reductase AniA of Neisseria gonorrhoeae FA1090, endogenous in living gonococci (enzyme)
chain: CGGEQAAQAPAETPAASAEAASSAAQATAETPAGELPVIDAVTTHAPEVPPAIDRDYPAKVRVKMETVEKTMKMDDGVEYRYWTFDGDVPGRMIRVREGDTVEVEFSNNPSSTVPHNVDFHAATGQGGGAAATFTAPGRTSTFSFKALQPGLYIYHCAVAPVGMHIANGMYGLILVEPKEGLPKVDKEFYIVQGDFYTKGKKGAQGLQPFDMDKAVAEQPEYVVFNGHVGSIAGDNALKAKAGETVRMYVGNGGPNLVSSFHVIGEIFDKVYVEGGKLINENVQSTIVPAGGSAIVEFKVDIPGSYTLVDHSIFRAFNKGALGQLKVEGAENPEIMTQKLSDTAYAGSGAASAPAASAPAASAPAASASEKSVY
notes: source: endogenous, living N. gonorrhoeae FA1090 (WT and Δlaz) cells
- stoichiometry N: 3
